Six molecules from US20190225662A1 (VIB VZW, published 2019) can be followed below.

Sequences and labels used below:
B1: ExD-AcD fragment of APP695 (without Fc) (ligand)
chain: SVDSADAEEDDSDVWWGGADTDYADGGEDKVVEVAEEEEVADVEEEEADDDEDVEDGDEVEEEAEEPYEEATERTTSTATTTTTTTESVEEVVRVPTTAASTPD
notes: also called APP695 ExD-AcD fragment; sAPPα ExD-AcD
B2: sAPPα (Fc cleaved) (ligand)
chain: LEVPTDGNAGLLAEPQIAMFCGKLNMHMNVQNGKWESDPSGTKTCIGTKEGILQYCQEVYPELQITNVVEANQPVTIQNWCKRGRKQCKTHTHIVIPYRCLVGEFVSDALLVPDKCKFLHQERMDVCETHLHWHTVAKETCSEKSTNLHDYGMLLPCGIDKFRGVEFVCCPLAEESDSVDSADAEEDDSDVWWGGADTDYADGGEDKVVEVAEEEEVADVEEEEADDDEDVEDGDEVEEEAEEPYEEATERTTSTATTTTTTTESVEEVVRVPTTAASTPDAVDKYLETPGDENEHAHFQKAKERLEAKHRERMSQVMREWEEAERQAKNLPKADKKAVIQHFQEKVESLEQEAANERQQLVETHMARVEAMLNDRRRLALENYITALQAVPPRPHHVFNMLKKYVRAEQKDRQHTLKHFEHVRMVDPKKAAQIRSQVMTHLRVIYERMNQSLSLLYNVPAVAEEIQDEVDELLQKEQNYSDDVLANMISEPRISYGNDALMPSLTETKTTVELLPVNGEFSLDDLQPWHPFGVDSVPANTENEVEPVDARPAADRGLTTRPGSGLTNIKTEEISEVKMDAEFGHDSGFEVRHQK
notes: Made as an Fc fusion in HEK293 cells; also called soluble amyloid precursor protein α; purified sAPPα
B3: Sushi domain 1 of the GABAB1a receptor, purified (receptor)
chain: TSEGCQIIHPPWEGGIRYRGLTRDQVKAINFLPVDYEIEYVCRGEREVVGPKVRKCLANGSWTDMDTPSRCV
notes: also called Sushi 1; sushi1

Assay [1] has as its target B3. As to the kind of experiment: ITC of the synthetic peptide with purified sushi 1 (peptide injected into the protein); N is the fitted stoichiometry. How it is done:
(§1) All ITC experiments were carried out on a MicroCal iTC200 system. For ITC experiments involving APP constructs expressed in HEK293 cells, the purified GABABR1a-Sushi1 domain, sAPPα, CuBDAcD, AcD and CuBD constructs were buffer-exchanged by size exclusion chromatography in 20 mM Na-HEPES pH 7.0, 150 mM NaCl supplemented with 5 mM CaCl2. Concentrated samples were diluted and degassed before the experiment at the concentrations reported in the Fig. legends. sAPP fragments (all of them at 30 μM) were placed in the MicroCal sample cell and matching buffer was placed in the reference cell. Sushi1 (300 μM) was in the syringe and was injected into the cell in a series of 1 μL injections at 25° C. All the datasets were subtracted with a reference data consisting of serial injections of Sushi 1 in the cell, containing buffer only under the same conditions. For ITC experiments involving synthetic APP peptides, the Sushi-1 protein was dialysed overnight to PBS buffer. The 17-mer peptide was resuspended in H2O:acetonitrile (5:1) at a stock concentration of 3 mM, and diluted in PBS to 300 uM. In order to avoid buffer-buffer mismatches, the same amount of H2O:acetonitrile mixture was also added when diluting the protein to a 30 uM concentration. The 9-mer peptide was resuspended in PBS. Titrations comprised 26×1.5 μL injections of peptide into the protein, with 90 s intervals. […]

Assay [2] has as its target B3. Kind of assay: ITC, peptide (300 uM) injected into Sushi-1 protein (30 uM), PBS; 17mer peptide, APP695 204-220. How it is done:
as §1
(In general: Isothermal titration calorimetry measures the heat released or taken up as one component is titrated into another.)

For assay [3], the target named is B3. Kind of assay: ITC with purified sushi 1. The method, then:
as §1

The target in assay [4] is B3. Kind of assay: ITC, sushi1 (300 µM) injected into ExD-AcD (30 µM); N is the fitted stoichiometry on the Molar Ratio axis. The method, then: as §1
Assay [5] concerns the target B3. As to the kind of experiment: ITC, sushi1 (300 µM) injected into sAPPα (30 µM); N is the fitted stoichiometry on the Molar Ratio axis. The method, then:
as §1

Assay [6] has as its target B3. Kind of assay: ITC of the synthetic peptide … (211-220) with purified sushi 1. How it is done: as §1
The target in assay [7] is B1. Kind of assay: ITC, sushi1 (300 µM) injected into ExD-AcD (30 µM). The method, then:
as §1

For assay [8], the target named is B2. As to the kind of experiment: ITC, Sushi1 (300 µM) injected into sAPPα (30 µM), 25° C. The method, then:
as §1

The term Kd denotes the equilibrium constant for the complex coming apart. Read a high Kd as a looser complex. For DDSDVWWGGADTDYADG (also called 17AA stretch) [synthetic 17mer peptide, APP695 204-220AA], the N in assay [1] worked out at 0.72. In assay [2], this molecule showed a Kd of 810 nM.
With DDSDVWWGG (also called 204-212AA) [synthetic 9mer peptide, APP695 residues 204-212], in assay [1], the N worked out at 0.96.
Consider B1, for which, in assay [3], the molar ratio is around 1. For the same molecule, the N in assay [4] came to 1.16.
Regarding B2, the N in assay [5] worked out at 1.12.
Turning to GGADTDYADG [synthetic peptide, APP695 residues 211-220], the binding result in assay [6] is reported as “no binding”.
Take B3: the Kd in assay [7] is 621 nM; in assay [8], 431 nM.
